Two molecules from patent US20230242586A1 (University of California, published 2023) can be followed below.

Bridge positions count the residues as written; N and C are the ends. Square brackets hold non-standard residues; d marks the D form.

The target of the test is T1, biotinylated K-Ras(G12D)·GppNHp (His-Avi-TEV-KRAS (G12D)) (human, biotin on the Avi tag (co-expressed BirA)).
T1 construct: Loaded with GppNHp; the protocol for the biotinylated proteins tells of no tag cleavage; Used in the TR-FRET assay
In words: TR-FRET Ras-Raf interaction assay: biotinylated K-Ras(G12D)·GppNHp with GST-Raf1-RBD, peptide titrated (competition).

B1: KD17 (peptide)
peptide: {CH2CO}-[dY]NYPYRPLELGWYCG-NH2
modifications: thioether N-14
notes: Chemically synthesized linker-free thioether macrocycle; in the mRNA display selection the same peptide stood as a peptide-mRNA/cDNA fusion
Turning to B1, the binding result is listed as “binds”.

B2: KD1 (peptide)
peptide: {CH2CO}-[dY]IIVTEKFIWVHHCG-NH2
modifications: thioether N-14
notes: as for B1
Consider B2, for which the binding result is reported as “binds”.
